Test results from patent US20240327544A1.

Target: human FcγRIa expressed on transiently transfected CHO-S cells (human) (UniProt P12314)
Assay: flow cytometry, CHO-S cells transiently expressing human FcγRIa, PE-conjugated goat anti-human IgG F(ab')2, % PE+ cells

human FcγRIa expressed on transiently transfected CHO-S cells (human), sequence (P12314 16-374): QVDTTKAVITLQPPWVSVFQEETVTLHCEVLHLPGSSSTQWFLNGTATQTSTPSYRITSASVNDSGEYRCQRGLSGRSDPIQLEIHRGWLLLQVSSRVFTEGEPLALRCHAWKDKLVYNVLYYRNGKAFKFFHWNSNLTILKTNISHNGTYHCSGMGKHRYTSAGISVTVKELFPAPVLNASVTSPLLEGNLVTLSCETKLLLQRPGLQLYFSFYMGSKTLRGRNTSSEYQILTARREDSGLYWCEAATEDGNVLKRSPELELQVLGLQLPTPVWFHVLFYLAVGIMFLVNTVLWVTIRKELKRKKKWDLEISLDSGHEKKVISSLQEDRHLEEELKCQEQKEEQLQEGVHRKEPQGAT

nivolumab (antibody)
EC50 (read off the curve): 0.2 µg/mL
